Literature values as cited in article PMC3463409.

Target: Cys30 (UniProt position 49, FFSFFCPHCYQ)
Conditions: not stated (a thiol pKa implies the reduced form of the active-site cysteine)

Substance: Thiol:disulfide interchange protein DsbA (Escherichia coli)
- pKa: 3.5
